According to article PMC3006384, “Phosphorylation of Mouse Immunity-Related GTPase (IRG) Resistance Proteins Is an Evasion Strategy for Virulent Toxoplasma gondii” (PLoS Biology, 2010):

B1: recombinant wt Irga6 (bacterially expressed, from pGEX-4T-2-Irga6) [mouse] / itself (parent)
chain: MGQLFSSPKSDENNDLPSSFTGYFKKFNTGRKIISQEILNLIELRMRKGNIQLTNSAISDALKEIDSSVLNVAVTGETGSGKSSFINTLRGIGNEEEGAAKTGVVEVTMERHPYKHPNIPNVVFWDLPGIGSTNFPPNTYLEKMKFYEYDFFIIISATRFKKNDIDIAKAISMMKKEFYFVRTKVDSDITNEADGKPQTFDKEKVLQDIRLNCVNTFRENGIAEPPIFLLSNKNVCHYDFPVLMDKLISDLPIYKRHNFMVSLPNITDSVIEKKRQFLKQRIWLEGFAADLVNIIPSLTFLLDSDLETLKKSMKFYRTVFGVDETSLQRLARDWEIEVDQVEAMIKSPAVFKPTDEETIQERLSRYIQEFCLANGYLLPKNSFLKEIFYLKYYFLDMVTEDAKTLLKEICLRN

Variants of: B1
Assay: light scattering (GTP-dependent oligomerisation)
Details: with itself, value read at the last time point, 60 min, parent: 0.61, read off a plot

| Variant | response |
| --- | --- |
| chain 1 T108D | 0.22 a.u. |
